Source: patent publication US20240383984A1 (Genentech, published 2024)
Positions count from the first letter of the chain named.

T1: human FcRH3 (full-length, on SVT2 cells) (human, UniProt Q96P31 18-734)
T1 construct: whole, on cells; also called SVT2-FcRH3
T1 sequence (looked up): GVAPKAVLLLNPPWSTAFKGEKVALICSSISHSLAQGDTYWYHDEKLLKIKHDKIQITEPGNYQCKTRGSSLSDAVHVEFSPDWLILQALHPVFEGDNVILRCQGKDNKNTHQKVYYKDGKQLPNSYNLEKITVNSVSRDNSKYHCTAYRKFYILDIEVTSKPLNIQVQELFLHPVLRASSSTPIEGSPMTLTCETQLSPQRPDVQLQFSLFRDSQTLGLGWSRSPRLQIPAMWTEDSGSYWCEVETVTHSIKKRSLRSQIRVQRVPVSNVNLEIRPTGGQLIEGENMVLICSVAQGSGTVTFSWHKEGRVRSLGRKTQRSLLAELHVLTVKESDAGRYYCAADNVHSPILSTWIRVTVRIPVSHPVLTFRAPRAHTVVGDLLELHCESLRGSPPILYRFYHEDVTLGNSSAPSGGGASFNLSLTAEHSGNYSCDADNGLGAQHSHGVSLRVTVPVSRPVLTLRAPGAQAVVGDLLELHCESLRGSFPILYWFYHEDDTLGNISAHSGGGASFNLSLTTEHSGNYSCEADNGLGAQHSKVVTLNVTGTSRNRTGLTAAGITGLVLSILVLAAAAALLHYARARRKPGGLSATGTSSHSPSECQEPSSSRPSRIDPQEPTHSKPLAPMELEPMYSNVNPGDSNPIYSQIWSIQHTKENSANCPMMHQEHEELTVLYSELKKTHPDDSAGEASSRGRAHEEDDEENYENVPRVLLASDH

T2: cynomolgus FcRH5 (full-length, on cells) (cynomolgus monkey)
T2 construct: also called SVT2-Cyno-FcRH5; cyno FcRH5
T2 chain: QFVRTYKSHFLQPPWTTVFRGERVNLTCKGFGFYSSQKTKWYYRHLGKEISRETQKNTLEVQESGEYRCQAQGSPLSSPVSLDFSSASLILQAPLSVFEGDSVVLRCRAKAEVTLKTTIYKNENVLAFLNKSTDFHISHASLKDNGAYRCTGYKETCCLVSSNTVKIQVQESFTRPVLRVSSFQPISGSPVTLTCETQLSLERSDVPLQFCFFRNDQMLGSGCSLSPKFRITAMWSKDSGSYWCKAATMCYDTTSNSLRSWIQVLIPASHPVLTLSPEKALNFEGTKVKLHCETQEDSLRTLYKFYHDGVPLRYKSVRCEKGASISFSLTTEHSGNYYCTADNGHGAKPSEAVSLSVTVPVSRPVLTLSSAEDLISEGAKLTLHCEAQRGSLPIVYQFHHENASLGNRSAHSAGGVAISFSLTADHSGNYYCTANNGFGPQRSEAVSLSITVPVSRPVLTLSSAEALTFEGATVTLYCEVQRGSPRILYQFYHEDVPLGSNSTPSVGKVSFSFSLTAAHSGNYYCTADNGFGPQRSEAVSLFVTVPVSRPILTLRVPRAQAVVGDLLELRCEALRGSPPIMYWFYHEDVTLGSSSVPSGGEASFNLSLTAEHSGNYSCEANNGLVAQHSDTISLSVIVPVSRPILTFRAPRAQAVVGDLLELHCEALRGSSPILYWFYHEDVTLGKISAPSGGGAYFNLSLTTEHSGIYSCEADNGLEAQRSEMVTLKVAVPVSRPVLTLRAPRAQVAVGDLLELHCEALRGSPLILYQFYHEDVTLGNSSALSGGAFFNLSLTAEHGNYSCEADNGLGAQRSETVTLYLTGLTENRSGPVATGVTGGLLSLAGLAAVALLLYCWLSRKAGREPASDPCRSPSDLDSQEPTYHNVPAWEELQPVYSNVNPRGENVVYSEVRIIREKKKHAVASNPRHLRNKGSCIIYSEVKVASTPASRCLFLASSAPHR

B1: hu1G7.v1.13.1/38E4.v1 TDB (bispecific antibody, V domains shown)
VH 1: EVQLVESGPGLVKPSETLSLTCTVSGFSLTRFGVHWVRQPPGKGLEWLGVIWRGGSTDYNAAFMSRLTISKDNSKNQVSLKLSSVTAADTAVYYCSNHYYGSSDYALDNWGQGTLVTVSS
VL 1: DIQMTQSPSSLSASVGDRVTITCKASQDVRNLVVWFQQKPGKAPKLLIYSGYYRYTGVPSRFSGSGSGTDFTLTISSLQPEDFATYYCQQHYQPPYTFGQGTKVEIK
VH 2: EVQLVQSGAEVKKPGASVKVSCKASGFTFTSYYIHWVRQAPGQGLEWIGWIYPENDNTKYNEKFKDRVTITADTSTSTAYLELSSLRSEDTAVYYCARDGYSRYYFDYWGQGTLVTVSS
VL 2: DIVMTQSPDSLAVSLGERATINCKSSQSLLNSRTRKNYLAWYQQKPGQSPKLLIYWTSTRKSGVPDRFSGSGSGTDFTLTISSLQAEDVAVYYCKQSFILRTFGQGTKVEIK
notes: knob-into-hole TDB; also called 1G7.v1.13.1 TDB
B2: hu1G7.v1.13/38E4.v1 TDB (bispecific antibody, V domains shown)
VH 1: B1 VH 1 with L48I
VL 1: B1 VL 1
VH 2: B1 VH 2
VL 2: B1 VL 2
notes: knob-into-hole TDB; also called 1G7.v1.13 TDB
B3: hu1G7.v1.1/38E4.v1 TDB (bispecific antibody, V domains shown)
VH 1: B1 VH 1
VL 1: B1 VL 1 with Y52S, T56S, H91Q, Q93S
VH 2: B1 VH 2
VL 2: B1 VL 2
notes: knob-into-hole TDB; also called 1G7.v1.1 TDB
B4: hu1G7.v1.3/38E4.v1 TDB (bispecific antibody, V domains shown)
VH 1: B1 VH 1
VL 1: B1 VL 1 with L32I, Y52S, T56S, H91Q, Q93S
VH 2: B1 VH 2
VL 2: B1 VL 2
notes: knob-into-hole TDB; also called 1G7.v1.3 TDB
B5: hu1G7.v1.2/38E4.v1 TDB (bispecific antibody, V domains shown)
VH 1: B1 VH 1
VL 1: B1 VL 1 with Y53N, T56S, H91Q, Y92F
VH 2: B1 VH 2
VL 2: B1 VL 2
notes: knob-into-hole TDB; also called 1G7.v1.2 TDB

Each binder was assayed against T1, human FcRH3 (full-length, on SVT2 cells) (assay: FACS, SVT2 cells, 3 µg/ml).
Procedure: (§1) Human FcRH5, cyno FcRH5, human FcRH1, FcRH2, FcRH3, and FcRH4 transfected mouse SVT2 cells were used to test binding and cross-reactivity of FcRH5 TDBs. The method was carried out as follows. Cultured SVT2 cells were lifted using non-enzyme cell dissociation buffer (Sigma, #C5914). 1×10⁵ cells were suspended in 100 μL and incubated with FcRH5 TDBs at 3 μg/ml. […] Cells were washed twice with FACS buffer before flow cytometry analysis was carried out on a FACSCalibur.

Binding result, binds:
B1
B2
B3
B4
B5

Biological target: T2, cynomolgus FcRH5 (full-length, on cells)
Test: FACS, SVT2 cells, 3 µg/ml
Procedure: as §1

Binding result, binds:
B1
B2
B3
B4
B5
